What was measured:
Details in all cases: 20 nM; 72 h
[1] = system: MCF10A; experiment: percent viability (nuclei count relative to siNT); higher = more viable cells
Procedure: (§1)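 After 72 h, cells were fixed and stained with Hoechst and anti-fibrillarin, and nucleoli per nucleus were counted with CellProfiler. Values are plate-adjusted percent effect for the one-nucleolus and 5+ nucleoli phenotypes, normalised to siNT (0%) and to the positive controls siNOL11 or siKIF11 (100%), as the mean of biological triplicates. Percent viability is the nuclei count relative to siNT.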

[2] = system: MCF10A; experiment: one-nucleolus phenotype percent effect, hitpick validation (relative to siNT 0% and siNOL11 100%); higher = more cells with one nucleolus
Procedure: (§2)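 Primary screen hits (microRNA mimics) were re-picked and rescreened for nucleolar number in MCF10A cells (hitpick validation; percent effect relative to the siNT and siNOL11/siKIF11 controls). A secondary screen measured nucleolar rRNA biogenesis inhibition: after 72 h of transfection at 20 nM, cells were labelled 1 h with 1 mM 5-EU and nucleolar 5-EU signal was quantified, normalised to siNT (0%) and siPOLR1A (100%). Means are over n=5 (MCF10A) or n=2 (RPE-1, HeLa) biological replicates.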

[3] = system: MCF10A; experiment: one-nucleolus phenotype percent effect (relative to siNT 0% and siNOL11 100%); higher = more cells with one nucleolus (ribosome biogenesis inhibition)
Procedure: as §1

[4] = system: HeLa; experiment: nucleolar rRNA biogenesis percent inhibition (5-EU; siNT 0%, siPOLR1A 100%); higher = stronger inhibition of nucleolar rRNA biogenesis
Procedure: as §2

[5] = system: hTERT RPE-1; experiment: as above
Procedure: as §2

[6] = system: MCF10A; experiment: as above
Procedure: as §2

[7] = system: MCF10A; experiment: 5+ nucleoli phenotype percent effect, hitpick validation (relative to siNT 0% and siKIF11 100%); higher = more cells with five or more nucleoli
Procedure: as §2

[8] = system: MCF10A; experiment: 5+ nucleoli phenotype percent effect (relative to siNT 0% and siKIF11 100%); higher = more cells with five or more nucleoli
Procedure: as §1

| Sequence | percent viability [1] [%] | one-nucleolus phenotype percent effect [2] [%] | one-nucleolus phenotype percent effect [3] [%] | nucleolar rRNA biogenesis percent inhibition [4] [%] | nucleolar rRNA biogenesis percent inhibition [5] [%] | nucleolar rRNA biogenesis percent inhibition [6] [%] | 5+ nucleoli phenotype percent effect [7] [%] | 5+ nucleoli phenotype percent effect [8] [%] |
| --- | --- | --- | --- | --- | --- | --- | --- | --- |
| UCUCUGGGCCUGUGUCUUAGGC [hsa-miR-330-5p] | 17.8 | 99.9 | 67.1 | 66.1 | 109 | 65.2 | 1.29 | -22.3 |
| UAUGGCACUGGUAGAAUUCACU [hsa-miR-183-5p] | 16.2 | 101 | 81 | 21.8 | 204 | 33.5 | -0.696 | -24 |
| UGGUUCUAGACUUGCCAACUA [hsa-miR-182-3p] | 17.5 | 165 | 97.2 | 9.57 | 173 | 64.6 | -12.4 | -35.8 |
| CGGCGGGGACGGCGAUUGGUC [hsa-miR-1908-5p] | 40.6 | 128 | 93.7 | 68.5 | 113 | 90.6 | -7.82 | -47.2 |
| UGUCCUCUAGGGCCUGCAGUCU [hsa-miR-3909] | 25.5 | 196 | 93.1 | 74.5 | 66.8 | 42.9 | -15.4 | -34.2 |
| AGUUUUGCAGGUUUGCAUCCAGC [hsa-miR-19b-1-5p] | 26.2 | 196 | 76.9 | 92.7 | -48.4 | 30.7 | -19.8 | -41.5 |
| AAGGAGCUCACAGUCUAUUGAG [hsa-miR-28-5p] | 39 | 146 | 69.4 | 60.9 | 63.6 | 0.18 | -2.58 | -30.7 |
| AAAGGAGGAAAUAGGCAGGCCA [hsa-miR-3173-3p] | 17.5 | 84.3 | 67.7 | 25.3 | 159 | 86.5 | -0.0263 | -35.7 |
| AGCUUUUGGGAAUUCAGGUAGU [hsa-miR-3140-3p] | 17.7 | 159 | 91.3 | 76.4 | 33 | 6.44 | -14.2 | -25.9 |
| UGGCAGUGUCUUAGCUGGUUGU [hsa-miR-34a-5p] | 11.9 | 28.9 | 11.2 | 37.7 | 52.6 | 72.2 | 19.4 | -14.4 |
| CUUAUGCAAGAUUCCCUUCUAC [hsa-miR-491-3p] | 15.5 | 118 | 73.6 | -3.33 | -86.4 | 63.6 | -10.1 | -51.5 |
| AGAAGGCACUAUGAGAUUUAGA [hsa-miR-605-3p] | 43.9 | 154 | 66.4 | 23.1 | -22.8 | 65 | -15.9 | -49.9 |
| GUUCUCCCAACGUAAGCCCAGC [hsa-miR-629-3p] | 38.5 | -55.4 | -34.6 | 55.5 | 70.8 | 82.1 | 96.3 | 238 |
| UAAGGCACGCGGUGAAUGCC [hsa-miR-124-3p] | 39.1 | 139 | 70.4 | 91.7 | 28.2 | 61.9 | 18.1 | -14.4 |
| CUCUUGAGGGAAGCACUUUCUGU [hsa-miR-526b-5p] | 28.7 | 81.9 | 71.3 | 81.5 | 75.9 | 130 | -6.22 | -54.5 |
| UGAAGGUCUACUGUGUGCCAGG [hsa-miR-493-3p] | 28 | 126 | 73 | -1.09 | 108 | 69.3 | 4.11 | -34.3 |
| AAGGAGCUUACAAUCUAGCUGGG [hsa-miR-708-5p] | 27.9 | 187 | 120 | 48.6 | 9.05 | -26.3 | 1.8 | -34.6 |
| CUGCCAAUUCCAUAGGUCACAG [hsa-miR-192-3p] | 62.7 | 137 | 70.5 | 37.7 | 136 | 67.1 | -12.3 | -40.8 |
| ACCUUGGCUCUAGACUGCUUACU [hsa-miR-212-5p] | 27.9 | -36.9 | -30.9 | 95.9 | 114 | 118 | 91.8 | 164 |

From the supplement of paper PMC10899765
